Experiments:
[1] = biological target: human IgM (purified human IgM, MilliporeSigma; IgM in human sera) (human); experiment: cell-based or functional assay
[2] = biological target: human IgG (purified human IgG; IgG in human sera) (human); experiment: cell-based or functional assay

Chain of human IgM (purified human IgM, MilliporeSigma; IgM in human sera) (human) (heavy, as listed by the source): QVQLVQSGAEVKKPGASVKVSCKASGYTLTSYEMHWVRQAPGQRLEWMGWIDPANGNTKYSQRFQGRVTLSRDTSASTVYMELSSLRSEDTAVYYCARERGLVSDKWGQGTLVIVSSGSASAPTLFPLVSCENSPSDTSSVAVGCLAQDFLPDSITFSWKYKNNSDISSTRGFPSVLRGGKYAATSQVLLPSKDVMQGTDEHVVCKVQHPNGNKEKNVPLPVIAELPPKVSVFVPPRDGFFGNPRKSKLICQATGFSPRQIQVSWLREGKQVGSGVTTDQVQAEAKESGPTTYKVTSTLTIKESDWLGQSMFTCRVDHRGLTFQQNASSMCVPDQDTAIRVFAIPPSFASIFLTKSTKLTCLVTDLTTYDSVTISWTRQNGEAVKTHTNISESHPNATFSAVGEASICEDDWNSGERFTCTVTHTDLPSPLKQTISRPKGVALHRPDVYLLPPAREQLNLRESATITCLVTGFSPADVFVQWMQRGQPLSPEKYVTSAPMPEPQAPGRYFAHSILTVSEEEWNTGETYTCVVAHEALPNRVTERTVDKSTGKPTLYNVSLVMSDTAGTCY

IceMG (recombinant His-tagged fusion protein of IceM and IdeZ proteolytic domains with the rigid linker) (enzyme)
EC50 of IceMG enzymatic activity on IgM in human sera [1]: 0.07 nM | EC50 of IceMG enzymatic activity on IgG in human sera [2]: 4.7 nM

From patent EP4611795A1
